Measurements published in patent US20230093708A1, “PROTEIN NANOPARTICLE DESIGN AND APPLICATION” (Duke University, priority 2020, published 2023).

Key:
[1] = Temperature-programmed dynamic light scattering; format: physicochemical
Procedure: Temperature-programmed dynamic light scattering experiments were carried out using a Dynapro plate reader (Wyatt Technology; Santa Barbara, Calif.) with samples filtered through 0.45 μm Millex-GV filters. Data were collected at increments of 1° C., and the cumulant fit hydrodynamic radius was taken as the radius. The Tt was defined as the temperature at which aggregates of size hundreds of nanometers were formed.
Each block co-polypeptide was analyzed by dynamic light scattering (DLS) at several temperatures between 4° C. and 37° C. to determine the thermal stability of the micelles, and to determine their radius of hydration (Rh). […] In contrast, RLP40-ELP80 (SEQ ID NO: 84) and RLP40-ELP80-Fn3 (SEQ ID NO: 96) self-assembled into micelles with a Rh of 30 and 32 nm, respectively, between 20-37° C. (FIG. 15).
Therefore, to get a more accurate picture, we monitored the Rh as we slowly cooled the solution. We observed two different overall behaviors. [S]-40-[QHN]-40 (SEQ ID NO: 100) upon cooling underwent a clear unimer to micelle transition at ˜55° C. and a clear micelle to aggregate transition at 28° C. (FIG. 32B). A unimer to micelle transition that is temperature dependent is known as the critical micellization temperature (CMT). As we know from before, this UCST aggregation temperature is dependent on the solution concentration. [S]-80-[QHN]-40 (SEQ ID NO: 101) remained a micelle at the highest temperature we could measure with the instrument. Upon cooling the size of the aggregate increased slightly until a clear aggregate transition at 18° C.

[2] = Cryo-TEM micelle core size, inter-core spacing and aspect ratio; format: physicochemical
Outline: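 Vitrified 10 μM RLPn-ELP80 (3 s blot, chamber at 15° C., 100% humidity) imaged by cryo-TEM at 80 keV. Core size and spacing measured manually on at least 25 particles; aspect ratio from the longest straight line of a particle and its perpendicular.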

[3] = Static and dynamic light scattering (SLS/DLS) of block co-polypeptides; format: physicochemical
Outline: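 Samples at 10 μM in PBS (140 mM NaCl, 10 mM phosphate, 3 mM KCl, pH 7.4), filtered 0.45 μm, measured at 15 °C over 30°–150° in 5° steps. Rh from cumulant fit of DLS, extrapolated to zero angle. Rg and MW from partial Zimm plots of SLS.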

[4] = tested on: K562+αvβ3 cell line; assay: Flow cytometry cell uptake of Alexa488-labeled micelles; format: cell-based; conditions: 10 μM, 37 °C, 2 hours
Procedure: Approximately 1×10^8 cells were harvested from either K562 or K562+αvβ3 cell lines and resuspended into 1 mL of serum-free medium containing 10 μM of the various Fn3-decorated and control block polypeptides. LM609 antibody was also resuspended at 10 μM in serum-free medium. Micelles were prepared from a mixture of ˜10% Alexa 488 dye-labeled RLP-ELP block co-polypeptides and 90% unlabeled polypeptides on a molar basis. The cells were incubated at 37° C. with the labeled micelles for a specified time, then rinsed with 1 mL of Hanks Buffered Saline Solution (HBSS), collected by centrifugation at 500 RCF for 5 min at 20° C., and resuspended in HBSS+1% BSA. Cells were maintained on ice until they were analyzed by flow cytometry (BD Accuri C5). The cell fluorescence intensity of Alexa 488 (Green) was quantified after gating to remove cellular debris on unstained control samples.
To assess the intracellular uptake of these particles, we used a cell line stably transfected with the αvβ3 integrin. The native cell line, K562, has endogenously low levels of expression of this receptor and therefore serves as the receptor-negative control, and the un-decorated RLPXX-ELP80 micelles serve as ligand-negative controls for each type—size and shape—of micelle. […]

[5] = Critical micelle concentration by pyrene I1/I3 fluorescence; format: physicochemical; conditions: inflection point of sigmoidal fit, triplicate data
Procedure: Key parameters of interest are the hydrophilicity of the corona-forming block, the hydrophilicity of the core block, the overall length of the co-polypeptide and the ratio of the two blocks. Parameters of evaluation are the size, morphology, stability, and thermoresponsive behavior. All measurements were made in 140 mM NaCl, 10 mM phosphate buffer, 3 mM KCl, pH 7.4 unless otherwise specified. Size was evaluated by the hydrodynamic radios (Rh) and radius of gyration (Rg) by dynamic light scattering (DLS) and static light scattering (SLS) respectively. Rg and Rh can be combined to yield the shape factor ρ=Rg/Rh, which provides a rough indication of the morphology of the scatterer. […] For an elongated scatterer, the shape factor depends upon the aspect ratio. A combination of temperature dependent turbidity and DLS was utilized to determine the phase behavior of the block co-polypeptides. Cryogenic transmission electron microscopy (Cryo-TEM) was utilized to evaluate the morphology and provide crucial insight into the hydration of the core/corona chains. Stability of the assembled nanostructure was determined by a shift in the I1/I3 fluorescent bands of pyrene as described previously.
All of these modifications to the core and corona chains prompted us to measure the critical micelle concentration (CMC) of these micelle constructs. […]

[6] = Table 8, 15 °C, 140 mM PBS, 10 μM
[7] = Table 9, UCST-UCST block co-polypeptides

B1: RLP40-ELP80: RLP-ELP block co-polypeptide forming spherical micelles (protein)
chain: QYPSDGRGQYPSDGRGQYPSDGRGQYPSDGRGQYPSDGRGQYPSDGRGQYPSDGRGQYPSDGRGQYPSDGRGQYPSDGRGQYPSDGRGQYPSDGRGQYPSDGRGQYPSDGRGQYPSDGRGQYPSDGRGQYPSDGRGQYPSDGRGQYPSDGRGQYPSDGRGQYPSDGRGQYPSDGRGQYPSDGRGQYPSDGRGQYPSDGRGQYPSDGRGQYPSDGRGQYPSDGRGQYPSDGRGQYPSDGRGQYPSDGRGQYPSDGRGQYPSDGRGQYPSDGRGQYPSDGRGQYPSDGRGQYPSDGRGQYPSDGRGQYPSDGRGQYPSDGRGGAGVPGGGVPGAGVPGGGVPGAGVPGGGVPGAGVPGGGVPGAGVPGGGVPGAGVPGGGVPGAGVPGGGVPGAGVPGGGVPGAGVPGGGVPGAGVPGGGVPGAGVPGGGVPGAGVPGGGVPGAGVPGGGVPGAGVPGGGVPGAGVPGGGVPGAGVPGGGVPGAGVPGGGVPGAGVPGGGVPGAGVPGGGVPGAGVPGGGVPGAGVPGGGVPGAGVPGGGVPGAGVPGGGVPGAGVPGGGVPGAGVPGGGVPGAGVPGGGVPGAGVPGGGVPGAGVPGGGVPGAGVPGGGVPGAGVPGGGVPGAGVPGGGVPGAGVPGGGVPGAGVPGGGVPGAGVPGGGVPGAGVPGGGVPGAGVPGGGVPGAGVPGGGVPGAGVPGGGVPGAGVPGGGVPGAGVPGGGVPGAGVPGGGVPGAGVPGGGVPGAGVPGGGVPGAGVPGGGVPGAGVPGGGVPGAGVPGGGVPGAGVPGGGVPGAGVPGGGVPGAGVPGGGVPGAGVPGGGVPGAGVPGGGVPGAGVPGGGVPGAGVPGGGVPGAGVPGGGVPGAGVPGGGVPGAGVPGGGVPGAGVPGGGVPGAGVPGGGVPGAGVPGGGVPGAGVPGGGVPGAGVPGGGVPGAGVPGGGVPGAGVPGGGVPGAGVPGGGVPGAGVPGGGVPGAGVPGGGVPGAGVPGGGVPGAGVPGGGVPGAGVPGGGVPGAGVPGGGVPGAGVPGGGVPGAGVPGGGVPGAGVPGGGVPGAGVPGGGVPGAGVPGGGVPGAGVPGGGVPGAGVPGGGVPGAGVPGGGVPGAGVPGGGVPGAGVPGGGVP
- Rh (DLS at several temperatures) ([1]; between 4 °C and 37 °C, micelles 20-37 °C, 10 μM in 140 mM PBS): 30 nm
- core radius (cryo-TEM) [2]: approximately 12.8 nm
- spacing between particle cores (cryo-TEM) [2]: 29.5 nm
- Spacing (nm) ([2]; Table 2, inter-core spacing, mean ± standard deviation): 29.5 ± 4.8 nm
- Core radius (nm) ([2]; Table 2, mean ± standard deviation, 10 μM in 140 mM PBS): 12.8 ± 1.8 nm
- Core Diameter (nm) [n = 30] [2, 6]: 24.3 ± 2.8 nm
- Intra-core Spacing (nm) [n = 30] [2, 6]: 23.6 ± 4.5 nm
- Nagg ([3]; Table 1, 10 μM in PBS, 15 °C): 68
- Rg(nm) ([3]; Table 1, 10 μM in PBS, 15 °C): 29.9 nm
- Rh (nm) ([3]; Table 1, 10 μM in PBS, 15 °C): 33.3 nm
- ρ ([3]; Table 1, shape factor Rg/Rh): 0.89
- cell fluorescence (Geometric Mean±StDev) [4]: 8686±8787

B2: [S]-80-[QHN]-40: block co-polypeptide of two UCST blocks, (GRGDSPYS)80-(GRGDQPHN)40 (protein)
chain: GRGDSPYSGRGDSPYSGRGDSPYSGRGDSPYSGRGDSPYSGRGDSPYSGRGDSPYSGRGDSPYSGRGDSPYSGRGDSPYSGRGDSPYSGRGDSPYSGRGDSPYSGRGDSPYSGRGDSPYSGRGDSPYSGRGDSPYSGRGDSPYSGRGDSPYSGRGDSPYSGRGDSPYSGRGDSPYSGRGDSPYSGRGDSPYSGRGDSPYSGRGDSPYSGRGDSPYSGRGDSPYSGRGDSPYSGRGDSPYSGRGDSPYSGRGDSPYSGRGDSPYSGRGDSPYSGRGDSPYSGRGDSPYSGRGDSPYSGRGDSPYSGRGDSPYSGRGDSPYSGRGDSPYSGRGDSPYSGRGDSPYSGRGDSPYSGRGDSPYSGRGDSPYSGRGDSPYSGRGDSPYSGRGDSPYSGRGDSPYSGRGDSPYSGRGDSPYSGRGDSPYSGRGDSPYSGRGDSPYSGRGDSPYSGRGDSPYSGRGDSPYSGRGDSPYSGRGDSPYSGRGDSPYSGRGDSPYSGRGDSPYSGRGDSPYSGRGDSPYSGRGDSPYSGRGDSPYSGRGDSPYSGRGDSPYSGRGDSPYSGRGDSPYSGRGDSPYSGRGDSPYSGRGDSPYSGRGDSPYSGRGDSPYSGRGDSPYSGRGDSPYSGRGDSPYSGRGDSPYSGRGDQPHNGRGDQPHNGRGDQPHNGRGDQPHNGRGDQPHNGRGDQPHNGRGDQPHNGRGDQPHNGRGDQPHNGRGDQPHNGRGDQPHNGRGDQPHNGRGDQPHNGRGDQPHNGRGDQPHNGRGDQPHNGRGDQPHNGRGDQPHNGRGDQPHNGRGDQPHNGRGDQPHNGRGDQPHNGRGDQPHNGRGDQPHNGRGDQPHNGRGDQPHNGRGDQPHNGRGDQPHNGRGDQPHNGRGDQPHNGRGDQPHNGRGDQPHNGRGDQPHNGRGDQPHNGRGDQPHNGRGDQPHNGRGDQPHNGRGDQPHNGRGDQPHNGRGDQPHN
- critical micelle concentration (CMC) [5]: 0.4 µM
- micelle to aggregate transition (UCST aggregation) ([1]; upon cooling): 18 °C
- shape factor / form factor (Rg/Rh) [3]: > 1
- ρ ([3]; Table 9, Rg/Rh): 1.2
- Nagg [3, 7]: 1430
- Rg(nm) [3, 7]: 75.7 nm
- Rh (nm) [3, 7]: 62.8 nm

B3: [S]-40-[QHN]-40: block co-polypeptide of two UCST blocks, (GRGDSPYS)40-(GRGDQPHN)40 (protein)
chain: GRGDSPYSGRGDSPYSGRGDSPYSGRGDSPYSGRGDSPYSGRGDSPYSGRGDSPYSGRGDSPYSGRGDSPYSGRGDSPYSGRGDSPYSGRGDSPYSGRGDSPYSGRGDSPYSGRGDSPYSGRGDSPYSGRGDSPYSGRGDSPYSGRGDSPYSGRGDSPYSGRGDSPYSGRGDSPYSGRGDSPYSGRGDSPYSGRGDSPYSGRGDSPYSGRGDSPYSGRGDSPYSGRGDSPYSGRGDSPYSGRGDSPYSGRGDSPYSGRGDSPYSGRGDSPYSGRGDSPYSGRGDSPYSGRGDSPYSGRGDSPYSGRGDSPYSGRGDSPYSGRGDQPHNGRGDQPHNGRGDQPHNGRGDQPHNGRGDQPHNGRGDQPHNGRGDQPHNGRGDQPHNGRGDQPHNGRGDQPHNGRGDQPHNGRGDQPHNGRGDQPHNGRGDQPHNGRGDQPHNGRGDQPHNGRGDQPHNGRGDQPHNGRGDQPHNGRGDQPHNGRGDQPHNGRGDQPHNGRGDQPHNGRGDQPHNGRGDQPHNGRGDQPHNGRGDQPHNGRGDQPHNGRGDQPHNGRGDQPHNGRGDQPHNGRGDQPHNGRGDQPHNGRGDQPHNGRGDQPHNGRGDQPHNGRGDQPHNGRGDQPHNGRGDQPHNGRGDQPHN
- critical micelle concentration (CMC) [5]: 3 µM
- micelle to aggregate transition (UCST aggregation) ([1]; upon cooling): 28 °C
- unimer to micelle transition (critical micellization temperature, CMT) ([1]; upon cooling): ~55 °C
- aggregation number (Nagg) [3]: 43
- hydrodynamic radius (Rh) [3]: 28.4 nm
- radius of gyration (Rg) [3]: 35.1 nm
- ρ ([3]; Table 9, Rg/Rh): 1.2
- Nagg [3, 7]: 43
- Rg(nm) [3, 7]: 35.1 nm
- Rh (nm) [3, 7]: 28.4 nm
